Measurements reported in patent US20210403547A1.

Target: membrane-bound ligands (TGF-alpha and Epiregulin) on HT-29 cells
Assay: cell-based or functional assay

Mean Ringspot Total Intensity of Fluorescence (internalization into HT-29 cells), 40 ug/mL, 0 min post addition: 94
Mean Ringspot Total Intensity of Fluorescence (internalization into HT-29 cells), 40 ug/mL, 5 min post addition: 116
Mean Ringspot Total Intensity of Fluorescence (internalization into HT-29 cells), 40 ug/mL, 15 min post addition: 126
Mean Ringspot Total Intensity of Fluorescence (internalization into HT-29 cells), 40 ug/mL, 30 min post addition: 124
Mean Ringspot Total Intensity of Fluorescence (internalization into HT-29 cells), 40 ug/mL, 60 min post addition: 167
Mean Ringspot Total Intensity of Fluorescence (internalization into HT-29 cells), 40 ug/mL, 120 min post addition: 177
Mean Ringspot Total Intensity of Fluorescence (internalization into HT-29 cells), dose 0.34 ug/ml, 2 h at 37 C: 1410
Mean Ringspot Total Intensity of Fluorescence (internalization into HT-29 cells), dose 0.69 ug/ml, 2 h at 37 C: 1480
Mean Ringspot Total Intensity of Fluorescence (internalization into HT-29 cells), dose 1.38 ug/ml, 2 h at 37 C: 1470
Mean Ringspot Total Intensity of Fluorescence (internalization into HT-29 cells), dose 2.75 ug/ml, 2 h at 37 C: 1570
Mean Ringspot Total Intensity of Fluorescence (internalization into HT-29 cells), dose 5.5 ug/ml, 2 h at 37 C: 1360
Mean Ringspot Total Intensity of Fluorescence (internalization into HT-29 cells), dose 11 ug/ml, 2 h at 37 C: 1390
Mean Ringspot Total Intensity of Fluorescence (internalization into HT-29 cells), dose 22 ug/ml, 2 h at 37 C: 1760
Mean Ringspot Total Intensity of Fluorescence (internalization into HT-29 cells), dose 44 ug/ml, 2 h at 37 C: 1810
Mean Ringspot Total Intensity of Fluorescence (internalization into HT-29 cells), dose 88 ug/ml, 2 h at 37 C: 2440
Substance: Control IgG (antibody)
